Here are results for 70 sequences from the domain aggregation screens of Martell et al. (2025).
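Further: 20 min heating vs room temperature control held 20 min.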

A short description of the series: soluble fraction after stress (log2 fold change); higher = more stays soluble; pooled small domains, quantitative proteomics. The conditions noted are these: stress: 75 degC.
Turning to “HMKKYFPPKSRFNPNKYLLKDWMALGLSEKQSQSILNFIQRGIYSNSALEKIYVMPEEVFTLIKDSTYYEE”, the “soluble fraction (log2)” value is -1.38. For “HMKKYIEIYNYYKQLIESEQLKSGDKMPSVRKATKIFNVSKTTVQNAYFDLQADGYIIAAPKSGYYVTEM” the value was -1.07; for “HMKKYLNIYNIIVNKIESKEYQSNDKLPSEKELMDQYNVSRDTVRKSLNMLEQNGYIQKTKGKGSFVLDIN”, -0.865; for “HMKLEEITIIVPSLRLDNFVSDLARTSRSKAVQIIDSERVFINGQNETKASKQVKLGDVITSA”, -0.211. For “HMKLHPRDQERTRAISARGERLYAVTVGDLRRRIGEMLEWFGRQIESQEPMRVAKAARRITDFFDQVEAFT” the value was -2.5. For the sequence “HMKLIRLGKAAGELNVGMSTLAEFLQSKGHSVDPNPNTKLTPEQYALLRMEFAADQTLKKLTKQP”, the “soluble fraction (log2)” value was 0.452. For “HMKLKHANGNHPLTQQEKQNMIEEAAKHYGDYMTALGFDWKQDPNSSDTPMRVAKAFVNDLAEGVY” the value was 0.0234. Take “HMKLLLSANISKLRKKYSMTQEQLAEALGVTFASVSKWERGVATPELKLIAEMADMFEVSIDALIGYEFRN”: the “soluble fraction (log2)” value is -1.87. For “HMKLPIEKESYRIIWDLEEESFRIRLKISENSPQEEKNILINQAIEDIENITGEPIDKSPYYVLYE” the value was -0.627.

Take “HMKLPNSFGSIQKLSGNRRKPYRVVKTIGWDENGKQIRKTLGYYETRAKALQELALFNEKPYD”: the “soluble fraction (log2)” value was -1.72. As to “HMKLTALWTANPKISAPIYSEPSTQSKTLGRIYQGASVKVYSFDPEWAYINSSGVVGYVLRRHLE”, the “soluble fraction (log2)” value is -2.43. For the sequence “HMKLTINIDAAHDGKTIKQLFAEKGYSLELIKKFKYDGAIEVNGERKTVRWVLREGDLLVLEAN”, the “soluble fraction (log2)” value was -2.42. For “HMKLTNIQYETLKVVVESRAKIDEEEGITIKLEDIKKYIDQAISFTGLVGDDEDYKKLFADMEYRFKIQ” the value was -2.96; for “HMKLVAAGYHQNRLLVLLGIQAEELQAKRLLASFDRFRGREATPKPPIHDSARRWLRDTYHHVMNQVPVEL”, -1.59. As for “HMKMHKIIKERRLALNFTQEQVAKYLGVTTPAVNKWEKGISYPDISLLPALARLLDTDLNTLLSF”, the figure is -4.38. As for “HMKMLPAEVLTHPAVVALIERGAPTGSITPEEVRQASEDAAVEPRHLKALLAHLSALGISVQIP”, the figure is -0.303; as for “HMKMLSIQRREAIRALLLEKESITIAEVMEKFQISVETARRDFDALADEGFLNKVYGGATLKK”, -1.68.

Regarding “HMKMPNGYGSITKLSGKRRKPWRVRKTAGWELDAKTQKLKQTYINIGYYETRADAMSALVSYNEDP”, the “soluble fraction (log2)” value was -1.01.

“HMKMQPVISQGVLYINNVTDVRTIEVFDISGRIVADAAASTTVNIAHLNEGPYIVKVTTVNGIESIKILNK”: the “soluble fraction (log2)” value is -2.5.

Take “HMKNAMTDIYLEEIKKILTKNEFLVYTLRELNNFSVQFITDNYDLSEKTIYNSVYRAKKKIDRHFT”: the “soluble fraction (log2)” value was -0.159.

Turning to “HMKNDKLLIFMELKGISRTQLSKSTGIPASTLGRIINGDVQKIKAVYMEAIANALDTSIHTIFDV”, the “soluble fraction (log2)” value is -1.6. For “HMKNDNIHMMASKINGIALEVGVLTPGMHPKNDLSEGEVGYIVTNLKTTREAKVGDTVTLAKKPAATPLPG” the value was 0.322. For “HMKNETFAITSEDAGKRLDVWLTNILGDYSRSYVERLVEQGNVTVGGKTVKAGYKLKAGDSVQVSIPGPK” the value was 0.144. As for “HMKNISSEEDREKALSLGITQEFIDNKGRYFITVPNKPSNFKEQALNIQKEISEQIDTVINKRFEF”, the figure is 0.0903; as for “HMKNLDILTPKEIEVLNLVAKGYSNSKISKELDIAEVTVKKHIGSMFQKLDVKDRLSLALIL”, -0.591. As for “HMKNLKPSTEVILKELVKRYPDQTEFRKQQIVDVGQSFGYKGKDYGPIFDADNRVKIGTYDLAGLIVPLQR”, the “soluble fraction (log2)” value was 0.0472.

Turning to “HMKNLNVIDLSALRTLELKESSDWTLIQKRFKLLVKKYHPDMNAGSKQYEEKLKKITLAYTHLKKLF”, the “soluble fraction (log2)” value is -2.67. As for “HMKNQQLFNIGDRFQVDGVAYRMEKLFPENGTVEVYNLGVGRHKTMSFEEILALWNSGKLLFEI”, the “soluble fraction (log2)” value is -0.966. For “HMKNSIKLDNFVGMSYDEVISNKEYDFNFVSAFEKTSDYEAGTIIGQTPAAEERVMVGTTVTLTVAQP” the value was 0.491; for “HMKNTADRVYENLFHMLVSGDYAPGDRIPSEHELKERFNVSRNTIRAALNRMNALGIIETRQGDGTYLKG”, -0.472; for “HMKNTFGLTEREMEVLALIVDGLSNPEIAEKLFITRATAKAHVHSILQKLYVDDRTQAAVTAMREGL”, -2.21. Take “HMKNTIPVPHIIGLSEQEARETLERAGLQLNVIKTEPNTKYESGQVTDTNPNEGIKVPKGTIVNVVLADS”: the “soluble fraction (log2)” value is -0.0118. In the case of “HMKNTLDAYIRYLSNFLSRNNYPEAEDLSFINARADQAYEVFLEARRGGVDVSTAEELAMIALMQGY”, the “soluble fraction (log2)” value was -2.34. Regarding “HMKNVEEMILGKLKRKVSENLENASFEEIILVDAEKSVYKGIIKANYIEYYFRVNLSTGEVLSWKLK”, the “soluble fraction (log2)” value is -0.86. As for “HMKPAFTPYVVKVTADVLNVRSGPGTNYGITTKVKKGEAYTIVEEKNGWGKLKSGAGWISLEYTVK”, the figure is -1.09. As for “HMKPALFSADELNRLYRYGLSLTGERDRAYDLLQTALEKYLRQSQAPANAMRYVRKIMHNQFIDDYR”, the figure is -1.53; as for “HMKPDWLSDGRLIPDEVMSHLRKIAVHAVEEMGYSPEDVIKILGLSRNTIYDWLKRFREHGYEGLDTKK”, -0.957; as for “HMKPLAQQVNDYLAATRTSIATLANEIPGYSRPTISRYLAGKYDGDITTIEKLLAEWLAQRTG”, -0.832. As for “HMKPNEYVSGETFPYLGKNYRLKVLHGSENSVRLKGGYFITTISNRDSQLSTVKSLLEDWYQTHADK”, the figure is 0.043; as for “HMKPPTIELSYSEFIELVERGKVSKVIFSSDNYTLKGETVNGENFETVRPPFLEDNLSEILTIHKVPVSSE”, -0.109; as for “HMKPSKTVYTTANLNLRNGASMSAAVYTSVSRGTALATTGRTTSGWTQITHRGRTLWASSKYLTTTTPP”, -3.17. Regarding “HMKPSNRSYPTALRMEVIGIIRERYADFGPTLAGEKLAELHGIHLGRETIRQWMMAAGLWKDRR”, the “soluble fraction (log2)” value is -1.09.

On to “HMKPTVKVPNVVNLSLRNAQIQLQNYGLEVGSISYESSRFKNAVLRQSISEGSVVEKGTTINLVISDGL”, for which the “soluble fraction (log2)” value was -1.56. For “HMKPVPPLNGTSLRDLALGYAGRYATTAARLKHYLQRKLRERGWGGEDEPDLDGLVARLVELGYVNDEVF” the value was -0.704; for “HMKQAINFSDLNSLEEGLGIAIRQKWNEVSINDVPEDKIELVEDWINNNRGKYKGINISIGSTY”, 0.114. As for “HMKQAVESAEAIFEEIARIKKLSLVKSEAEEIARKTGLQKFTIASQLLKNQHAYEMDESEIASLWDKKI”, the figure is -0.0597; as for “HMKQDFVYNGFVEAKGDDLMVQINYKGETYYVTEGESFGGFTVKSANKDKVVLSGQGGAETVLEFR”, -0.186; as for “HMKQENRLKILRKEKGLTQTKLANEIGVSKRTIIAWENDERQIKPDKAQQLADYFGVKEGYLLGYTNN”, 0.114. For “HMKQESSEDLLNEVIDKVIDSNPDEKNRLLDGELKLVSFFMGQVMKETKGKANPGVINGLIKKKFNI” the value was -0.701.

Consider “HMKQISNTDELEAMIQKIIEDNSQQVEKFRSGNEKLFGWFVGQVMKNTQGAANPKVVNEILKKSLK”, for which the “soluble fraction (log2)” value came to 0.318. For “HMKQISNTDELESMAKNIIQENPDQVSKFKNGNEKLFGWFVGQMMKSTGGTANPKVVNEILKNLLN” the value was 0.134; for “HMKQLIGYSVIDIKMGKLGEISFVNSKTAQALIHVSKDGKGFYFPWHKQFVKNIDAEKGIMEVEIPKEFLD”, -0.974. Turning to “HMKQLNKRQNDILSFAEKQGYVSVENLAKLFSVTQQTIRRDINYLSDNELLVRTHGGAYYSS”, the “soluble fraction (log2)” value was -1.18. On to “HMKQNRNLPVQIINNGKIIESVMTEFNLDIDWVYSEAKRLGYKNIKDIFYAGINRDGQFFIVPLF”, for which the “soluble fraction (log2)” value is -3.06. For “HMKQNVEAVIKERAIEKARAQVKAVSTHMALEAQSLSKEQLEFEIERIAAQIIDKMPSDFWND” the value was -1.28; for “HMKQPNFTVIETKILELLFQKDLSSREMQEILKISKDNLIFALQNLLEQEKIVLQTSNTYTVN”, -1.88; for “HMKQPVPDEIYFKRLANATEALGRYPRASERKKFGLNMSKRRYPTLTDFINKAIELGYVEDFR”, -0.833. As for “HMKQQAYEQGKAAYQSGDWLRAVTQLGQVKEAGEKNGEVDHLLGNAYMKLGQFESAAYAYNSALEDVA”, the figure is 0.53. “HMKQTMIVVMEKDAPQSQIDDMVKRIEGLGLKAHTIVGTQRTVVAAIGEKREDTRESLAGSPGVAEVVPIL”: the “soluble fraction (log2)” value came to 0.239. For “HMKQYVEPASETEKMVVELWEKVLLTEKIGMHDDFFELGGHSLKAMRLISLYHQEFNVRLSLKSLFEKLK” the value was -0.241; for “HMKRAVGLDEYRDSIVLKKPEGYTEESYAAYKNAYDALMALDSKETTAEMFANAKSAFEAAQAGLVQKP”, 0.119; for “HMKRIFEKKVVTESLNGLRLDKAAATLFADFSRNELGQWIKDEALLVNGKAKKVKEKVSEGDVLALDVELI”, 0.203. For “HMKRISDEDLLVMRRIDEVHTYHPTWGYRTITRILRRDDHLLINPKKVRRIMRDMGIYTIYPK” the value was -0.0338. For “HMKRITAVISQKKGRDYYYIIVSYYLSNGKRVQRWIKTEFPINGNNKRKLEQKRIEVLQEWQDKLV” the value was -1.23; for “HMKRLQEQAYDYLKELILSGKMIENEIYSETKLASEIGISRTPIRDALQRLSQDGFIDIIPSKGFRIH”, -0.734; for “HMKRMSKKQLSAVIEKYFSSQPGVTLTLKDIFRNLHLDTHPLKMIALDILEEMSWDDVIMKVSDTSYALNT”, 0.194. Regarding “HMKRNLESVLDHIEGIGPKRRKALYKHFGNLDAMRVAELEELESVEGMNKKAALAVYEFFRRNS”, the “soluble fraction (log2)” value stood at 0.386. As for “HMKRNTKAEVLEILLNSGETPVSGERLAENLGISRNAVWKAVTALKEDGYNISAKRNSGYILNKS”, the figure is -0.143; as for “HMKRREENLRRLALSTAERVKRKGKKEILNPMSPQERRIIHLTLQNNKEVVTHSEGEDPYRRVIISPRN”, -0.397; as for “HMKRRSLQVGDIVQVRSLNVKGEVVSIGKNEVVVAVGRLQMRAGFDDLDFKERPKEEREVESV”, -0.467.
